{"source": "paper PMC2360559", "about": "“Repeated cycles of Clostridium-directed enzyme prodrug therapy result in sustained antitumour effects in vivo” (British Journal of Cancer, 2006)", "system": "NC(=O)c1cc(N2CC2)c([N+](=O)[O-])cc1[N+](=O)[O-]", "test": "purified protein", "type": "biochemical, Haemophilus influenzae", "conditions": "100–1000 μM CB 1954, 500 μM NADPH, 37°C, 10 min, product 4HX", "data": [{"substance": "NTR-H; Haemophilus influenzae NfnB; YC78_HAEIN; HinNTR (Haemophilus influenzae Rd KW20)", "values": [{"measurement": "Km", "value": 690, "unit": "µM"}, {"measurement": "kcat", "value": 56.2, "unit": "s⁻¹"}]}]}
